Key:
Conditions in all cases: other: substrate of Bacillus sphaericus cyclodextrinase; pH 7.5; 40.0 °C
[1] = substrate: OC[C@H]1O[C@H](O[C@H]2[C@H](O)[C@@H](O)[C@@H](O[C@H]3[C@H](O)[C@@H](O)[C@@H](O[C@H]4[C@H](O)[C@@H](O)[C@@H](O[C@H]5[C@H](O)[C@@H](O)[C@@H](O[C@H]6[C@H](O)[C@@H](O)C(O)O[C@@H]6CO)O[C@@H]5CO)O[C@@H]4CO)O[C@@H]3CO)O[C@@H]2CO)[C@H](O)[C@@H](O)[C@@H]1O; test: purified protein, by the assay type
[2] = substrate: OC[C@H]1O[C@@H]2O[C@H]3[C@H](O)[C@@H](O)[C@@H](O[C@H]4[C@H](O)[C@@H](O)[C@@H](O[C@H]5[C@H](O)[C@@H](O)[C@@H](O[C@H]6[C@H](O)[C@@H](O)[C@@H](O[C@H]7[C@H](O)[C@@H](O)[C@@H](O[C@H]8[C@H](O)[C@@H](O)[C@@H](O[C@H]1[C@H](O)[C@H]2O)O[C@@H]8CO)O[C@@H]7CO)O[C@@H]6CO)O[C@@H]5CO)O[C@@H]4CO)O[C@@H]3CO; test: purified protein, by the assay type
[3] = substrate: OC[C@H]1O[C@H](O[C@H]2[C@H](O)[C@@H](O)[C@@H](O[C@H]3[C@H](O)[C@@H](O)[C@@H](O[C@H]4[C@H](O)[C@@H](O)C(O)O[C@@H]4CO)O[C@@H]3CO)O[C@@H]2CO)[C@H](O)[C@@H](O)[C@@H]1O; test: purified protein, by the assay type
[4] = substrate: OC[C@H]1O[C@@H]2O[C@H]3[C@H](O)[C@@H](O)[C@@H](O[C@H]4[C@H](O)[C@@H](O)[C@@H](O[C@H]5[C@H](O)[C@@H](O)[C@@H](O[C@H]6[C@H](O)[C@@H](O)[C@@H](O[C@H]7[C@H](O)[C@@H](O)[C@@H](O[C@H]8[C@H](O)[C@@H](O)[C@@H](O[C@H]9[C@H](O)[C@@H](O)[C@@H](O[C@H]1[C@H](O)[C@H]2O)O[C@@H]9CO)O[C@@H]8CO)O[C@@H]7CO)O[C@@H]6CO)O[C@@H]5CO)O[C@@H]4CO)O[C@@H]3CO; test: purified protein, by the assay type
[5] = substrate: OC[C@H]1O[C@@H]2O[C@H]3[C@H](O)[C@@H](O)[C@@H](O[C@H]4[C@H](O)[C@@H](O)[C@@H](O[C@H]5[C@H](O)[C@@H](O)[C@@H](O[C@H]6[C@H](O)[C@@H](O)[C@@H](O[C@H]7[C@H](O)[C@@H](O)[C@@H](O[C@H]1[C@H](O)[C@H]2O)O[C@@H]7CO)O[C@@H]6CO)O[C@@H]5CO)O[C@@H]4CO)O[C@@H]3CO; test: Reaction rate parameters of the present enzyme for cyclodextrins and maltooligosaccharides; assay type: biochemical
Protocol: (§1) When the amount of the enzyme was small, the reducing power of the enzyme was determined according to Nelson-Somogyi's method, with glucose as standard.

[6] = substrate: OC[C@H]1O[C@H](O[C@H]2[C@H](O)[C@@H](O)[C@@H](O[C@H]3[C@H](O)[C@@H](O)[C@@H](O[C@H]4[C@H](O)[C@@H](O)[C@@H](O[C@H]5[C@H](O)[C@@H](O)[C@@H](O[C@H]6[C@H](O)[C@@H](O)[C@@H](O[C@H]7[C@H](O)[C@@H](O)C(O)O[C@@H]7CO)O[C@@H]6CO)O[C@@H]5CO)O[C@@H]4CO)O[C@@H]3CO)O[C@@H]2CO)[C@H](O)[C@@H](O)[C@@H]1O; test: as above; assay type: biochemical
Protocol: as §1

[7] = substrate: OC[C@H]1O[C@H](O[C@H]2[C@H](O)[C@@H](O)[C@@H](O[C@H]3[C@H](O)[C@@H](O)[C@@H](O[C@H]4[C@H](O)[C@@H](O)[C@@H](O[C@H]5[C@H](O)[C@@H](O)C(O)O[C@@H]5CO)O[C@@H]4CO)O[C@@H]3CO)O[C@@H]2CO)[C@H](O)[C@@H](O)[C@@H]1O; test: as above; assay type: biochemical
Protocol: as §1

B1: cyclodextrinase (Lysinibacillus sphaericus) (protein)
chain: MIMLEAVYHRMGQNWSYAYNDSTLHIRIRTKRDNVPRIDLHCGEKYDPEKYKETIPMERMASDGLFDYWQAAVQPRYRRLVYYFALHSDNGDAVYFMEKGFFDQPPKVMYEGLFDFPYLNRQDVHTPPAWVKEAIFYQIFPERFANGDPSNDPEGVQEWGGTPSAGNFFGGDLQGVIDHLDYLSDLGVNALYFNPLFAATTNHKYDTADYMKIDPQFGTNEKLKELVDACHARGMRVLLDAVFNHCGHTFPPFVDVLNNGLNSRYADWFHVREWPLRVVDGIPTYDTFAFEPIMPKLNTGNEEVKAYLLNVGRYWLEEMGLDGWRLDVANEVDHQFWREFRSEIKRINPSAYILGEIMHDSMPWLQGDQFDAVMNYPFTNILLNFFARRLTNAAEFAQAIGTQLAGYPQQVTEVSFNLLGSHDTTRLLTLCSGNVERMKLATLFQLTYQGTPCIYYGDEIGMDGEYDPLNRKCMEWDKSKQNTELLAFFRSMISLRKAHPALRGSGLRFLPVLEHPQLLVYERWDDNERFLIMLNNEDAPVNVVIPAAQPGASWRTVNGEPCAVVEESSIQAALPPYGYAILHAPIAGTAE
notes: is cultured in a medium to yield and accumulate said cyclodextrinase, and this enzyme is collected from the culture; made in house; host or cells: Bacillus sphaericus E-244 (FERM BP-2458), the natural wild-type producer strain; not recombinant
[1]
  Km: 1.11 mM
[2]
  Km: 0.38 mM
[3]
  Km: 1540 µM
[4]
  Km: 1430 µM
[5]
  Km: 0.71 mM
[6]
  Km: 0.69 mM
[7]
  Km: 950 µM

From US5238825A, “Preparation and use of a cyclodextrinase for preparing maltooligosaccharides” (Kikkoman Corporation, priority 1989, dated 1993)
